# Measured values as given in paper PMC3281051, “Probing High Affinity Sequences of DNA Aptamer against VEGF165”.
# Assays:
# [1] = target: VEGF on HT-29 cells (human) (UniProt P15692); test: flow cytometry; conditions: hypoxia 1% O2, 37 C, scrambled signal subtracted, SPR (BIAcore 2000, CM5): PBS + 0.005% Tween-20, 25 C, 30 ul/min, aptamer 0.2-100 nM, 1:1 Langmuir fit, cells: culture medium, 2 h
# [2] = target: VEGF165 (human, UniProt P15692-4 27-191); test: SPR; SPR (BIAcore 2000, CM5): PBS + 0.005% Tween-20, 25 C, 30 ul/min, aptamer 0.2-100 nM, 1:1 Langmuir fit; cells: culture medium, 37 C, 2 h, 1% O2; conditions: protein: commercial, tags: carrier-free, chain copies: 2
# [3] = target: VEGF121 (human, UniProt P15692-9 27-147); test: as above; conditions: protein: commercial; tags: carrier-free; chain copies: 2; hairpin
# [4] = target: VEGF165, human (Homo sapiens (Human), UniProt P15692 27-191); test: SPR; PBS, 0.005% Tween-20, 25 C; protein amine-coupled on CM5; conditions: chain copies: 2
# Chain of VEGF165, human (P15692 other isoform, or with tags, fused parts or gaps): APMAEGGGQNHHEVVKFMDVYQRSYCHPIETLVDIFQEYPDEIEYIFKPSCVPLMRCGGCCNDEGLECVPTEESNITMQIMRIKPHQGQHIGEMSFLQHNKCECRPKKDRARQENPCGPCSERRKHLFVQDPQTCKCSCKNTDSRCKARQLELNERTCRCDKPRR
# Chain of VEGF121 (P15692 other isoform, or with tags, fused parts or gaps): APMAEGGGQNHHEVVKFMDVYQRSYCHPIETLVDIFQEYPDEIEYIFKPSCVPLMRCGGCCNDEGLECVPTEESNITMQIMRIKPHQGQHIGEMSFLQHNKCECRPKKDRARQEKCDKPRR
# Chain of VEGF on HT-29 cells (human) (P15692 whole entry): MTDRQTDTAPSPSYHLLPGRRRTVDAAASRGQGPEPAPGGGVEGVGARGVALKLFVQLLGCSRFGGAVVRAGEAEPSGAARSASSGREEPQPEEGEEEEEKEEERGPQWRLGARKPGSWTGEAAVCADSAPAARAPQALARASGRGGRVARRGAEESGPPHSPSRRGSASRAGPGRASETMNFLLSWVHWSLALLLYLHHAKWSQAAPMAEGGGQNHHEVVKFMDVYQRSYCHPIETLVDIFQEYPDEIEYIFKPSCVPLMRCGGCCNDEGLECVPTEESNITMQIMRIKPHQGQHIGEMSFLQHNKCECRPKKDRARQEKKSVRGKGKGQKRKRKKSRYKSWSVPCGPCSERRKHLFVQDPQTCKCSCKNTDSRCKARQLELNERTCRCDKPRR
molecule,measurement,setting,value
CAATTGGGCCCGTCCGTATGGTGGGT [SL2-B Texas Red],Kd,[1],1 nM
CCCGTCCGTATGGTGGG (ssDNA) [SL2],Kd,[2]; hairpin,49 ± 2.4 nM
CAATTGGGCCCGTCCGTATGGTGGGT (ssDNA) [SL2-B],Kd,[3],10200 ± 1890 nM
same,Kd,[2]; hairpin,0.5 ± 0.32 nM
GCCCGTCCGTATGGTGGGT (ssDNA) [SL2-A],Kd,[2]; hairpin,10 ± 1.1 nM
VEa5 (ssDNA) DNA: ATACCAGTCTATTCAATTGGGCCCGTCCGTATGGTGGGTGTGCTGGCCAGATAGTATGTGCAATCA,Kd,[4],120 ± 1.8 nM
same,Kd,[2]; 3 stem-loops (mfold),120 ± 1.8 nM
ATACCAGTCTATTCAATTGG (ssDNA) [SL1],binding result,[2]; hairpin,no binding
